Columns and labels:
[1] = system: stomach and intestinal epithelial cells; experiment: Mitogenic and physiological effects on stomach and intestinal epithelial cells; assay type: cell-based
From the text: The synthesis of AMP-18 is confined to lumenal mucosal lining epithelial cells of the gastric antrum of humans and other mammals. Inside cells the protein is co-localized with mucins in secretion granules, and appears to be secreted into the mucus overlying the apical plasma membrane. […] These include mitogenesis, restitution, maturation of barrier function, and cell protection after oxidant, non-steroidal anti-inflammatory (NSAID), and DSS-mediated injury. Certain of these physiological effects can occur at concentrations that are relatively low for rhAMP-18 (<50 μM) compared to the concentrations of other gastric peptide mediators such as trefoil peptides or the α-defensin, cryptdin 3 (>100 μM). […] AMP-18 likely plays a role in physiological and pathological processes such as wound healing in the gastric mucosal epithelium in vivo as may occur in gastritis secondary to NSAID drugs, other pharmaceutical agents and alcohol, ulcer disease, and the consequences of H. pylori infection and inflammation.

[2] = system: human colonic Caco2 (C2) cell monolayers; experiment: Tight junction recovery after low-calcium disruption, ZO-1 confocal microscopy; assay type: cell-based; conditions: low-calcium medium (3 μM) 1 hour, assessed 2 hours after addition; AMP peptide 8 μg/ml, KGF-1 100 ng/ml, EGF 100 ng/ml
Method: The AMP77-97 peptide prevented decreases in TJ proteins and epithelial integrity seen after treatment of human colonic Caco2 (C2) cell monolayers with the oxidant monochloramine, which disrupts intercellular junctions (FIG. 2; C,D). These cells were exposed to low-calcium medium (3 μM) for 1 hr to disrupt TJs, and then allowed to recover in medium containing AMP77-97 peptide, epidermal growth factor (EGF) or keratinocyte growth factor (KGF-1) which are known epithelial cell mitogens that might facilitate recovery of disrupted TJs. […] At the molecular level, AMP77-97 peptide facilitates the formation of TJs by enhancing translocation of several proteins (protein kinase C-zeta, Par6, Cdc42, ECT2 and Par3) from the cytosol into TJ domains.
Localization of the tight junction protein ZO-1 was monitored by indirect immunofluorescence laser scanning confocal microscopy in confluent monolayers of C2 cells. […] To disrupt tight junctions, cells were switched to low-calcium medium (3 μM) for 1 hour. Then a growth factor at a known mitogenic concentration was added to the medium, and 2 hours later its effect on tight junction formation was assessed by confocal microscopy. Vehicle, AMP peptide (8 μg/ml), KGF-1 (100 ng/ml), and EGF (100 ng/ml) were compared.

B1: rhAMP-18: recombinant human AMP-18 prepared in E. coli; Antrum Mucosal Protein-18 (gastrokine-1) (protein, UniProt Q9NS71 21-185, looked up)
Gastrokine-1: NYNINVNDDNNNAGSGQQSVSVNNEHNVANVDNNNGWDSWNSIWDYGNGFAATRLFQKKTCIVHKMNKEVMPSIQSLDALVKEKKLQGKGPGGPPPKGLMYSVNPNKVDDLSKFGKNIANMCRGIPTYMAEEMQEASLFFYSGTCYTTSVLWIVDISFCGDTVEN
Question: For B1, which “concentration for mitogenic effect relative to growth-promoting synthetic peptides” value ([1]; recombinant protein prepared in E. coli) is on record?
Answer: The value was “an order of magnitude lower”.

Question: And the “concentrations at which physiological effects occur” value ([1]; rhAMP-18)?
Answer: The value was less than 50 μM.

B2: KGF-1: keratinocyte growth factor, known epithelial cell mitogen (protein, UniProt P21781 32-194, looked up)
Fibroblast growth factor 7: CNDMTPEQMATNVNCSSPERHTRSYDYMEGGDIRVRRLFCRTQWYLRIDKRGKVKGTQEMKNNYNIMEIRTVAVGIVAIKGVESEFYLAMNKEGKLYAKKECNEDCNFKELILENHYNTYASAKWTHNGGEMFVALNQKGIPVRGKKTKKEQKTAHFLPMAIT
Question: For B2, which “formation of new tight junctions / localization of ZO-1” value [2] is on record?
Answer: Its value is “persistent separation of cells with TJ disruption and apparent loss of ZO-1”.

Source: patent US8017576B2, “Methods and compositions to treat mucositis” (The University of Chicago, priority 2005, dated 2011)
